Earlier results in publication PMC4411102 (PLoS ONE, 2015).

B1: secretory leucocyte protease inhibitor (SLPI): natural antimicrobial peptide (protein, UniProt P03973 26-132, looked up)
Antileukoproteinase: SGKSFKAGVCPPKKSAQCLRYKKPECQSDWQCPGKKRCCPDTCGIKCLDPVDTPNPTRRKPGKCPVTYGQCLMLNPPNFCEMDGQCKRDLKCCMGMCGKSCVSPVKA
B2: human defensin-5: antimicrobial peptide (peptide, UniProt Q01523 20-94, looked up)
Defensin alpha 5: ESLQERADEATTQKQSGEDNQDLAISFAGNGLSALRTSGSQARATCYCRTGRCATRESLSGVCEISGRLYRLCCR
modifications: Defensin-5
notes: antimicrobial peptide

Tested on: HIV
Source text: HIV-1 infection can be targeted at various stages, for example, viral entry, viral replication or assembly of viral components. HIV entry into the host cells is facilitated by binding of viral envelope glycoprotein (gp120) to host CD4 receptor [3, 4]. CD4-gp120 interaction initiates a cascade of events that stimulates gp41 to promote viral and host membrane fusion. Inhibition of gp120-CD4 interaction or virus-host cell fusion thus appears to be an attractive strategy to prevent HIV-1 infection. Towards this, significant advances have been made. […] Moreover, some of the AMPs cause adverse effects on vaginal commensals like lactobacilli which are required to maintain low pH in vaginal mucosa.

Molecule | Anti-HIV activity | Effect on HIV infection
B1 | reported to have anti-HIV activity | –
B2 | – | exacerbate HIV infection
